# Experimental data published in US20260132197A1 (NANJING LEGEND BIOTECH, published 2026).
# Numbering of substitutions follows the chain as printed. Names may count otherwise.
# B1: 108VH5.M14 / 108VL1.M5 (antibody, human IgG4 S228P, kappa, V domains shown)
# VH: EVQLVQSGAEVKKPGASVKVSCKASGYTFTHHWIHWVRQAPGQGLEWMGMIDASDGETRYAQKFQGRVTMTRDTSTSTVYMELSSLRSEDTAVYYCARLGRYYFDYWGQGTLVTVSS
# VL: EIVLTQSPATLSLSPGERATLSCRASQSVSSYLAWYQQKPGQAPRLLIYGASNRATGIPARFSGSGSGTDFTLTISSLEPEDFAVYYCGESYGHLYTFGGGTKVEIKR
# notes: Full-length IgG4 (S228P), kappa; also called VH5.M14 VL1.M5
# B2: 108VH5.M10 / 108VL1.M5 (antibody, human IgG4 S228P, kappa, V domains shown)
# VH: B1 VH with G56S
# VL: B1 VL
# notes: Full-length IgG4 (S228P), kappa; also called VH5.M10 VL1.M5
# B3: 108VH5.M17 / 108VL1.M5 (antibody, human IgG4 S228P, kappa, V domains shown)
# VH: B1 VH with I34M, D55E
# VL: B1 VL
# notes: Full-length IgG4 (S228P), kappa; also called VH5.M17 VL1.M5
# B4: 108VH5.M27 / 108VL1.M5 (antibody, human IgG4 S228P, kappa, V domains shown)
# VH: B1 VH with I34M, G56Y
# VL: B1 VL
# notes: Full-length IgG4 (S228P), kappa; also called VH5.M27 VL1.M5
# B5: 108VH5.M23 / 108VL1.M5 (antibody, human IgG4 S228P, kappa, V domains shown)
# VH: B1 VH with I34M, G56K
# VL: B1 VL
# notes: Full-length IgG4 (S228P), kappa; also called VH5.M23 VL1.M5
# B6: chimeric antibody 108C10A6 (antibody, V domains shown)
# VH: QMQLQQSGPQLVRPGASVKISCKTSGYSFTHHWIHWMKQRPGQGLEWIGMIDPSDSETRLSQKFKDKATLTVDASSSTAYMQLNSPTSEDSALYFCARLGRYYFDYWGQGTTLTVSS
# VL: NIVMTQSPRSMSMSVGERVTLSCKASENVGTYISWYQQKPDQSPKLLIYGASNRYTGVPDRFTGSGSGTDFTLTISTVQAEDLADYHCGESYGHLYTFGGGTKLEIK
# notes: Chimeric antibody with mouse variable domains; captured through human Fc; also called VH / VL
# Key:
# [1] = target: T1, wild type human CD47 (Acro Biosystems, cat. no. CD7-H5227) (human, UniProt Q08722 19-139); experiment: SPR, IgG captured, CD47 in flow; exp 2
# T1 construct: Bought protein used as SPR analyte; also called Human CD47 wt; wild-type CD47
# Human CD47-C33G [2] = target: T2, Human CD47-C33G (human, UniProt Q08722 19-135); experiment: SPR, IgG captured, CD47 in flow; exp 2
# T2 construct: also called CD47 mutein with C33G mutation
# [3] = target: T1, wild type human CD47 (Acro Biosystems, …); experiment: SPR, IgG captured, CD47 in flow; exp 3
# Human CD47-C33G [4] = target: T2, Human CD47-C33G; experiment: SPR, IgG captured, CD47 in flow; exp 3
# [5] = target: T3, human CD47 on cells (SHP-77 tumor cells, human red blood cells, CCRF-CEM cells, human CD47 CHO-K1 stable cell … (human, UniProt Q08722 19-323)); experiment: cell-based or functional assay
# [6] = target: T1, wild type human CD47 (Acro Biosystems, …); experiment: SPR, IgG captured, CD47 in flow; exp 4
# Human CD47-C33G [7] = target: T2, Human CD47-C33G; experiment: SPR, IgG captured, CD47 in flow; exp 4
# [8] = target: T4, cynomolgus CD47 on CHO-K1 stable cell line (cynomolgus, UniProt A0A5F8AK49 19-323 (rhesus entry)); experiment: flow cytometry on cynomolgus CD47 CHO-K1 cells
# T4 construct: whole, on cells; also called cynomolgus CD47/CHO-K1
# [9] = target: T3, human CD47 on cells (SHP-77 tumor …); experiment: flow cytometry on human CD47 CHO-K1 cells
# [10] = target: T3, human CD47 on cells (SHP-77 tumor …); experiment: flow cytometry on SHP-77 cells
# [11] = target: T3, human CD47 on cells (SHP-77 tumor …); experiment: flow cytometry on human RBCs;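 note: antibody binding measured by flow cytometry as geometric mean fluorescence intensity over a range of antibody concentrations, with EC50 and maximum taken from a sigmoidal dose-response fit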
# [12] = target: T1, wild type human CD47 (Acro Biosystems, …); experiment: SPR, IgG captured, CD47 in flow; exp 1
# Human CD47-C33G [13] = target: T2, Human CD47-C33G; experiment: SPR, IgG captured, CD47 in flow; exp 1
# [14] = target: T1, wild type human CD47 (Acro Biosystems, …); experiment: SPR, IgG captured, CD47 in flow; exp 2; remark: listed apart in the source
# Human CD47-C33G [15] = target: T2, Human CD47-C33G; experiment: SPR, IgG captured, CD47 in flow; exp 2; remark: listed apart in the source
# [16] = target: T1, wild type human CD47 (Acro Biosystems, …); experiment: SPR, IgG captured, CD47 in flow; exp 3; remark: listed apart in the source
# Human CD47-C33G [17] = target: T2, Human CD47-C33G; experiment: SPR, IgG captured, CD47 in flow; exp 3; remark: listed apart in the source
# [18] = target: T1, wild type human CD47 (Acro Biosystems, …); experiment: SPR, IgG captured, CD47 in flow; exp 4; remark: listed apart in the source
# Human CD47-C33G [19] = target: T2, Human CD47-C33G; experiment: SPR, IgG captured, CD47 in flow; exp 4; remark: listed apart in the source
# [20] = target: T1, wild type human CD47 (Acro Biosystems, …); experiment: SPR, IgG captured, CD47 in flow; exp 1; remark: listed apart in the source
# Human CD47-C33G [21] = target: T2, Human CD47-C33G; experiment: SPR, IgG captured, CD47 in flow; exp 1; remark: listed apart in the source
binder,measurement,setting,value
B1,Kd,[1],2.6 nM
same,koff,[1],0.0018 s⁻¹
same,kon,[1],690000 M⁻¹ s⁻¹
same,Kd,Human CD47-C33G [2],14 nM
same,koff,Human CD47-C33G [2],0.0037 s⁻¹
same,kon,Human CD47-C33G [2],260000 M⁻¹ s⁻¹
B2,Kd,[1],2.8 nM
same,koff,[1],0.0019 s⁻¹
same,kon,[1],660000 M⁻¹ s⁻¹
same,Kd,Human CD47-C33G [2],16 nM
same,koff,Human CD47-C33G [2],0.004 s⁻¹
same,kon,Human CD47-C33G [2],250000 M⁻¹ s⁻¹
B3,Kd,[3],18 nM
same,koff,[3],0.0084 s⁻¹
same,kon,[3],460000 M⁻¹ s⁻¹
same,Kd,Human CD47-C33G [4],1300 nM
same,koff,Human CD47-C33G [4],0.084 s⁻¹
same,kon,Human CD47-C33G [4],64000 M⁻¹ s⁻¹
B4,CCRF-CEM phagocytosis EC50,[5],0.28 nM
same,"CCRF-CEM phagocytosis, Phagocytosis (%)",[5],64.3%
same,Kd,[6],7.4 nM
same,koff,[6],0.0036 s⁻¹
same,kon,[6],490000 M⁻¹ s⁻¹
same,Kd,Human CD47-C33G [7],39 nM
same,koff,Human CD47-C33G [7],0.0085 s⁻¹
same,kon,Human CD47-C33G [7],220000 M⁻¹ s⁻¹
same,EC50,[8],3.4 nM
same,EC50,[9],2.6 nM
same,EC50,[10],9 nM
same,Fitted Maximal MFI,[10],36500 MFI
same,EC50,[11],4.7 nM
same,Fitted Maximal MFI,[11],26900 MFI
B5,CCRF-CEM phagocytosis EC50,[5],0.33 nM
same,"CCRF-CEM phagocytosis, Phagocytosis (%)",[5],64%
same,Kd,[6],6.4 nM
same,koff,[6],0.0028 s⁻¹
same,kon,[6],440000 M⁻¹ s⁻¹
same,Kd,Human CD47-C33G [7],33 nM
same,koff,Human CD47-C33G [7],0.0058 s⁻¹
same,kon,Human CD47-C33G [7],170000 M⁻¹ s⁻¹
same,EC50,[8],3.2 nM
same,EC50,[9],2.7 nM
same,EC50,[10],8.1 nM
same,Fitted Maximal MFI,[10],42100 MFI
same,EC50,[11],5.8 nM
same,Fitted Maximal MFI,[11],38800 MFI
B6,Kd,[3],0.2 nM
same,koff,[3],0.00032 s⁻¹
same,kon,[3],1.6e+06 M⁻¹ s⁻¹
same,Kd,Human CD47-C33G [4],0.95 nM
same,koff,Human CD47-C33G [4],0.00063 s⁻¹
same,kon,Human CD47-C33G [4],660000 M⁻¹ s⁻¹
same,Kd,[6],0.17 nM
same,koff,[6],0.0003 s⁻¹
same,kon,[6],1.8e+06 M⁻¹ s⁻¹
same,Kd,Human CD47-C33G [7],0.67 nM
same,koff,Human CD47-C33G [7],0.00061 s⁻¹
same,kon,Human CD47-C33G [7],920000 M⁻¹ s⁻¹
same,Kd,[12],0.2 nM
same,koff,[12],0.00032 s⁻¹
same,kon,[12],1.5e+06 M⁻¹ s⁻¹
same,Kd,Human CD47-C33G [13],0.92 nM
same,koff,Human CD47-C33G [13],0.00068 s⁻¹
same,kon,Human CD47-C33G [13],740000 M⁻¹ s⁻¹
same,Kd,[14],0.21 nM
same,koff,[14],0.00034 s⁻¹
same,kon,[14],1.6e+06 M⁻¹ s⁻¹
same,Kd,Human CD47-C33G [15],1.3 nM
same,koff,Human CD47-C33G [15],0.00074 s⁻¹
same,kon,Human CD47-C33G [15],590000 M⁻¹ s⁻¹
same,Kd,[16],0.2 nM
same,koff,[16],0.00032 s⁻¹
same,kon,[16],1.6e+06 M⁻¹ s⁻¹
same,Kd,Human CD47-C33G [17],0.95 nM
same,koff,Human CD47-C33G [17],0.00063 s⁻¹
same,kon,Human CD47-C33G [17],660000 M⁻¹ s⁻¹
same,Kd,[18],0.17 nM
same,koff,[18],0.0003 s⁻¹
same,kon,[18],1.8e+06 M⁻¹ s⁻¹
same,Kd,Human CD47-C33G [19],0.67 nM
same,koff,Human CD47-C33G [19],0.00061 s⁻¹
same,kon,Human CD47-C33G [19],920000 M⁻¹ s⁻¹
same,Kd,[1],0.19 nM
same,koff,[1],0.00032 s⁻¹
same,kon,[1],1.6e+06 M⁻¹ s⁻¹
same,Kd,Human CD47-C33G [2],1 nM
same,koff,Human CD47-C33G [2],0.00073 s⁻¹
same,kon,Human CD47-C33G [2],720000 M⁻¹ s⁻¹
same,Kd,[20],0.19 nM
same,koff,[20],0.00032 s⁻¹
same,kon,[20],1.6e+06 M⁻¹ s⁻¹
same,Kd,Human CD47-C33G [21],1 nM
same,koff,Human CD47-C33G [21],0.00073 s⁻¹
same,kon,Human CD47-C33G [21],720000 M⁻¹ s⁻¹
